# Measurements: patent US20140348862
# Molecular target: HLA-B7 (human), P01889
# Test: competition, FACS 4C
# Conditions: modification not given
row,IC50 [nM],Binder
1,< 1000,RPRRWKLQVL [PRAME 113-122]

# Molecular target: HLA-B*3501 (human), P01889
# Test: competition, FACS 4C
# Conditions: modification not given
row,Binder,IC50 [nM]
1,SPYLGQMINL [PRAME 253-262],1980
2,QPFIPVEVL [PRAME 170-178],2830
3,IPVEVLVDL [PRAME 173-181],2240
4,GACDELFSY [PRAME 186-194],2600

# Now from value to binder:
row,IC50 [nM],Binder
1,< 1000,FPPLFMAAF [PRAME 53-61]
2,320,EPILCPCFM [PRAME 499-507]
3,< 1000,LPRELFPPL [PRAME 48-56]
4,1580,LPRELFPPLF [PRAME 48-57]
5,< 1000,LPTLAKFSPY [PRAME 246-255]

# Molecular target: HLA-B*3501 (human), P01889
# Test: competition, FACS 4C
# Conditions: modification not given
# Remark: another data set of the same source
row,IC50 [nM],Binder
1,110,LPTLAKFSPY [PRAME 246-255]

# Molecular target: HLA-B*3501 (human), P01889
# Test: competition, FACS 4C
# Conditions: modification not given
# Remark: another data set of the same source
row,IC50 [nM],Binder
1,< 1000,EPILCPCFM [PRAME 499-507]
